± gives the uncertainty stated by the source.
Experiment: amyloid nucleation score (Sup35N fusion, yeast selection) (log enrichment); library NNK1; higher = more nucleation; inactive = no reads after selection
Method in brief: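 DiMSum was used to calculate nucleation scores as log enrichment of output over input reads, centred on the mode score of non-aggregating sequences. Sequences with fewer than 100 input reads were not scored. Input and output came from Illumina sequencing of plasmid inserts in psi-negative yeast expressing peptides of 20 random codons fused to Sup35N, induced 24 hours with 100 μM copper sulfate and then grown 7 days at 30°C on medium lacking adenine and uracil.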

| Substance | amyloid nucleation score |
| --- | --- |
| RIDQNICGIVNMVFR | 6.311 ± 0.047 |
| NGCTIVGVTKGSLNH | 1.04 ± 0.24 |
| LDDWRVMLVSANMHHVRC | -0.642 ± 0.39 |
| HLGGVWLLIHMRRSFPLDIW | 0.207 ± 0.7 |
| INAQAVIGNFRGRYSVYNVH | 4.23 ± 0.065 |
| HFSNIDNARNCSDSYWRYGI | 0.168 ± 0.3 |
| CSVFWCFVLGLVNRNLLKRS | -0.928 ± 0.4 |
| GCFSPITQWSMWHVWRVRRQ | 0.49 ± 0.97 |
| LTNIYLVRMT | 5.26 ± 0.071 |
| ISRGYHRYLFSKSNECGRLN | inactive |
| TCHSKSVCCLYGLCGGPEWG | 6.453 ± 0.055 |
| YGFVAYSDIVKAFGVIKSTG | -0.315 ± 0.31 |
| WLESRQPAEESVVVWNERVG | -0.831 ± 1.3 |
| DRYSNTTFNHIA | 0.779 ± 0.47 |
| VFGCSGLDKSQWND | 0.434 ± 0.45 |
| FLQFF | -0.656 ± 0.47 |
| VFRGSWCRTNNVIPGLFNKA | 0.488 ± 0.4 |
| STKKLYTILRHWSYDFAESG | -0.509 ± 1.7 |
| HVLHNWSDHDRN | 1.23 ± 0.55 |
| DVWKAGSVGPRQLVRRGGRR | 0.259 ± 0.81 |
| NEEGVIQSFILVDALVVQGL | 0.391 ± 0.39 |
| CPVKGFLSVTACDYL | -0.384 ± 0.57 |
| RAMTVLLGGNFQMIIKTFEL | 3.09 ± 0.074 |
| LLQNNCHLYYCLNGLVFRVR | 0.162 ± 0.32 |
| KTWLIG | 0.109 ± 0.54 |

| Substance | amyloid nucleation score |
| --- | --- |
| ILYVVWFYVLLRWVRVLLLR | 0.884 ± 0.49 |
| KMFVIVWCDFDAGALGATVN | -0.488 ± 0.58 |
| NYVGWLLCASILVRYNGTLE | 1.26 ± 0.77 |
| RMRATLDLSFWFGKEQYARV | 0.389 ± 0.45 |
| LTMPYAI | inactive |
| LWGFSISYRKFVVSYGKAP | 0.279 ± 0.31 |
| WWYSDMWMVSC | 2.34 ± 0.46 |
| KETSVSLHEDGIYCGFITSN | 0.187 ± 0.28 |
| PCTRHCLRLHLAFMWLILAI | -0.31 ± 0.4 |
| YTPMTTSWLLPSLEINI | -0.069 ± 0.71 |
| SITMGQS | -0.546 ± 0.46 |
| LVFKLLVLDHKSFGLLMVDS | -0.355 ± 0.63 |
| VKYGTLYEGRNDLIDVR | 0.635 ± 0.62 |
| ADCFNLYGRTFDKFKPPHMD | 0.631 ± 0.54 |
| GSMEHCNRNRFFFMGERLLR | -1.1 ± 2.7 |
| YSSWVKLASLVDRDVPQYDW | inactive |
| RVCCWHFTFVTVCCKLLSMT | 1.93 ± 0.23 |
| GFWAKSPLAGHSYKGYQLWA | 1.62 ± 0.57 |
| YSVFALRINLFAYTIPNSVL | -0.34 ± 0.24 |
| CWAKEFFNNESIRG | 0.077 ± 0.49 |
| RCVMRAHFSTWLHKVSTSVW | 0.677 ± 0.54 |
| HYSRDSLVVWYI | -0.228 ± 0.56 |
| HSYCLLLWYG | -1.74 ± 1.9 |
| ISLCCTSTYLTVSYGTDRS | 6.487 ± 0.061 |
| VHFDRCDLWPGMM | 0.136 ± 0.76 |

| Substance | amyloid nucleation score |
| --- | --- |
| CIRGGSIWLMGHNVREVC | 0.401 ± 0.49 |
| GREVGYVKLMDRPWPYRPAE | 0.191 ± 0.44 |
| TVCYTGEVRMLRS | 4.22 ± 0.068 |
| SRVRVLASVSFMTVRMVFEV | 0.436 ± 0.25 |
| RGGNIVKHRLFGPDGGAYWK | -0.591 ± 0.79 |
| WEKFIVAQIMVGHFGWVFQT | 5.36 ± 0.078 |
| SYGNVLVGHGV | -0.044 ± 0.61 |
| LVYPYESLFHFESGASH | 0.32 ± 0.21 |
| HWRTCCWQEMLLMSALSRQG | -0.252 ± 0.46 |
| RDGIMYG | 0.505 ± 0.39 |
| LRWYTQGMVLLEDRPCRCYN | -1.01 ± 0.41 |
| SYSKGGMSPFWWTTHRCDIM | 2.09 ± 0.35 |
| YLFSIVFCNV | 2.67 ± 0.29 |
| SNPSVNRHFVSSRGWLGKSN | -0.422 ± 1.4 |
| GFNIDT | 0.689 ± 1.2 |
| ERAKRSY | 3.04 ± 0.069 |
| FICRFDVHWHSGMFSLYPWC | 0.682 ± 0.47 |
| TLMRCVFLLYYPCGYIKSDL | 0.551 ± 0.31 |
| RTLFIRSLVYFVLSSFIFAV | -0.004 ± 0.36 |
| YNLSGFDNGFSISLSCSDVA | 0.886 ± 0.74 |
| RGAQLIRRSFKTVAGLGFIM | -0.767 ± 1.4 |
| ARHPECQSCSWRYCLYVVHC | inactive |
| SFFMYLNIRWIWSMCVNAIE | 0.09 ± 0.58 |
| SDRSLVGRNAGM | -0.468 ± 0.65 |
| MYLVM | 0.191 ± 0.48 |

| Substance | amyloid nucleation score |
| --- | --- |
| CHIGSRPLASMKAFPHCDVA | 1 ± 0.57 |
| VSIIE | -0.127 ± 0.4 |
| HFCMGWVYLPELMYRFYMCF | -0.494 ± 0.35 |
| IYTLGKKGMNHHDVGQWLFT | 1.55 ± 0.5 |
| NPLTGAL | -0.406 ± 0.56 |
| WHPAKMILEYAEVRSNL | -0.032 ± 0.39 |
| SLGVSDI | -1.16 ± 0.41 |
| NSCFQSSIYVTSYTWECSP | inactive |
| MEIRYYFVFEEDGRVFEGGT | 0.025 ± 0.43 |
| FFDSRFLFDSRTGSMYA | -1.71 ± 1.5 |
| SGTFLTFPYFIFCNVMICMS | 6.969 ± 0.049 |
| FSMIMSLDVL | -0.397 ± 0.4 |
| HCIPLALICGGSSSPVVEYL | 0.686 ± 0.43 |
| NYCYSFIKYPLEPVKFLSAV | -0.239 ± 1.1 |
| LKIKGGWVFVTSIW | -0.008 ± 0.35 |
| HPYIWSVPDYKPFRAQAARV | -0.029 ± 1.6 |
| YIYEDFGG | -0.407 ± 0.57 |
| VMGFHT | -0.402 ± 1.9 |
| GHFRSASRKYALTV | -0.619 ± 0.51 |
| CILLVFEDMWVSIV | -0.53 ± 0.36 |
| RDIYRVYNV | -1.05 ± 0.72 |
| RAHVLLLFMNCRRCKQTMIR | -0.88 ± 1.1 |
| SYSGTVCNRLRLVLVVDD | -0.098 ± 0.47 |
| FSFYMLRFFSKTSYYSLMSF | -0.721 ± 0.27 |
| RAMCKNQCSYVMR | 0.003 ± 0.37 |

| Substance | amyloid nucleation score |
| --- | --- |
| LGNLM | -0.109 ± 0.95 |
| VGHKNSYGRFKDIWIWLWYQ | -0.009 ± 1.4 |
| WHDKVKDFRIRAGHLSYSRG | 0.486 ± 0.63 |
| DNNLGLSWLSILAGFGH | -1.23 ± 0.91 |
| MKSFSMLPYIIVFRYY | 0.823 ± 0.85 |
| GKPDKVHARGWFTLVNRWLR | 0.399 ± 0.73 |
| CEFLIFTFRVSGEVLLQSRA | 0.265 ± 0.92 |
| CMKYMLCARKYFKSYSWLLS | 1.04 ± 0.73 |
| VTHVFYAVLGGMRMGLNFPT | -0.192 ± 0.4 |
| FLMFQGSYIYRNTGFYSSSD | -0.176 ± 0.95 |
| YSDSMTIKRDSLWVIGTLEL | 1.94 ± 0.21 |
| WGSASRLKVTLRRVRYTTTG | 0.813 ± 0.71 |
| TISKLGQPYRRNSKPL | -0.378 ± 0.41 |
| GQLLCWVASNYEGFNWVYKI | -0.161 ± 0.53 |
| CPLSNGSVRVNDGATTLAWL | -0.956 ± 2.1 |
| DFVRRSNRYRYIVKIV | 0.203 ± 0.39 |
| YGNFKVGFFVIRAWNWLNLI | 0.319 ± 1.2 |
| MDFYVLPNCRQNGMLCERSC | 0.508 ± 0.67 |
| MVVFRSY | -2.07 ± 1.9 |
| MFNRWDIHFIGNNNLYGICV | 0.613 ± 0.26 |
| RKTNLGWHSICRA | -0.435 ± 0.28 |
| YGSSAL | -0.419 ± 0.23 |
| FNVALFMEI | 1.07 ± 0.27 |
| TVLSRVFWQRDGFVIAQSDG | inactive |
| MASHGDWGCSNRVFLFPHCR | -2.08 ± 1.9 |

| Substance | amyloid nucleation score |
| --- | --- |
| RTVQSGHSSARCKIIGPYHD | -0.077 ± 1.7 |
| PRSDNSFSVQVEFVDICEVK | -0.437 ± 0.56 |
| CCTNM | 0.332 ± 0.22 |
| HFAPLFDYNLTGIKTLKTAD | 0.1 ± 0.77 |
| KLVVKWRGFLEDGDRTLWLV | 3.49 ± 0.13 |
| LSHWHGCCKSHRYIQF | 0.244 ± 0.3 |
| FIEHQTRSFDKILSYAWLEA | 0.379 ± 0.61 |
| SHQVVGGLLTYSVWCKCLGC | 3.92 ± 0.059 |
| SVSLFMITVFNVTC | 2.4 ± 0.14 |
| NSIDFVFDDGVLIRFVIKVS | inactive |
| RQVRMGFPGFWFMVIDYCRS | 0.499 ± 0.39 |
| IAYLNKAKNLFLC | inactive |
| GMGGGICSSEKMRCGNVEGV | -0.857 ± 0.34 |
| SCLSRASIYSRFHSNLYVKM | inactive |
| LFGTS | 0.501 ± 0.51 |
| NEECVPHV | 0.223 ± 0.34 |
| FFVGLPYTNSYHIPHVF | inactive |
| IRCLSMIWVTKDVLIIWRSQ | 0.159 ± 0.93 |
| HVMIFVIFPENYNICTFMKY | 2.29 ± 0.2 |
| VSWENPSINLRRADLPCPLF | 0.521 ± 0.57 |
| SIVGWCICLREFSVRFSYAE | 5.48 ± 0.075 |
| LFLWDVFGQLAFVRVGTICW | 1.14 ± 0.56 |
| MRCSDFELMWFQIDDKYVDN | -0.201 ± 0.17 |
| INIAMVMPLDGKLIQIDDTC | 0.177 ± 0.31 |
| AWVRLYWAGR | 0.216 ± 0.68 |

| Substance | amyloid nucleation score |
| --- | --- |
| LYYIRVFRNSI | -0.751 ± 0.46 |
| VALWGQYGTSIGAIGAVFSH | -0.03 ± 0.54 |
| AKDFIGQSC | 0.688 ± 0.45 |
| WRRRDRVLQCWL | inactive |
| TFGDWHKLRWRRSQPKCWSG | 0.299 ± 0.36 |
| SMFRAFKGYLWGNCSREAQR | 0.026 ± 0.25 |
| AANGCASSV | -0.856 ± 0.44 |
| RDHTIRPLWIAGSHMQFLNR | 0.477 ± 0.34 |
| PCSVISGHLTSMSSLSLFGG | -0.299 ± 0.32 |
| INFQNDELWVLETIGFHTYP | -0.256 ± 0.49 |
| SILGRWDHDLWNLFGARSLV | -0.148 ± 0.89 |
| TDLKLWH | 0.136 ± 1.2 |
| VEAPGLSCAIRGWNTVVIRR | 0.387 ± 0.49 |
| DGMVALYVGYATSLVTWAK | 0.65 ± 0.56 |
| WMLVRAACLGIKRKNG | 0.759 ± 0.51 |
| NRTYVGWEVILPKVWNSSVY | -0.663 ± 0.61 |
| EGMYC | 0.058 ± 0.34 |
| SVLYRINP | -1.55 ± 2.4 |
| SCLIFVSHSTEGYYSTPTFP | 2.26 ± 0.26 |
| CDCTSRGK | -0.407 ± 1.5 |
| TVVESRTPILVYFMGCRVTY | 3.31 ± 0.11 |
| SRLLMKRIYYCVYPKGTTKK | inactive |
